In patent US20250011363A1, “OPTIMIZED SHORTENED PEPTIDE THAT BINDS TO ACETYLCHOLINE RECEPTOR, AND USE THEREOF” (SKINMED CO., LTD., priority 2021, published 2025):

target: acetylcholine receptor; assay: SPR, peptide at 10 uM

Row | Binder | Binding affinity [RU]
1 | RYEARR [6mer-2-1154] | 30
2 | KAHFKK [6mer-2-1138] | 42
3 | RKTWRK [6mer-2-1124] | 39
4 | RYPVRK [6mer-2-1151] | 43
5 | KMKKKR [6mer-2-1136] | 36
6 | KCSIKK [6mer-2-1166] | 26
7 | RITGKR [6mer-2-1129] | 42
8 | RIKNRR [6mer-2-1145] | 23
9 | RTDFKR [6mer-2-1137] | 22
10 | KFMKKK [6mer-2-1147] | 35
11 | KAAEKK [6mer-2-1127] | 42
12 | RDAFKK [6mer-2-1125] | 30
13 | RPWERR [6mer-2-1132] | 32
14 | RANWKR [6mer-2-1135] | 29
15 | RHEVRR [6mer-2-1126] | 23
16 | KMSERR [6mer-2-1162] | 34
17 | KMKMKK [6mer-2-1133] | 22
18 | RCNFKK [6mer-2-1122] | 22
19 | KYENRK [6mer-2-1134] | 30
20 | KPSKRR [6mer-2-1121] | 21
21 | KACIKK [6mer-2-1143] | 42
22 | RIKAKK [6mer-2-1165] | 30
23 | RNWAKK [6mer-2-1152] | 37
24 | REWGRK [6mer-2-1146] | 32
25 | RNTDRK [6mer-2-1157] | 37
26 | KEKGKR [6mer-2-1148] | 34

Row | Binder | Binding affinity [RU]
27 | RMHVKR [6mer-2-1117] | 21
28 | RFEDRK [6mer-2-1144] | 39
29 | RFDGRR [6mer-2-1118] | 42
30 | KMEVKK [6mer-2-1116] | 31
31 | KCHFKK [6mer-2-1163] | 37
32 | KIDFRR [6mer-2-1149] | 21
33 | KCTVRK [6mer-2-1119] | 39
34 | RHSFRK [6mer-2-1130] | 29
35 | RITVKK [6mer-2-1160] | 23
36 | KDMGKR [6mer-2-1159] | 40
37 | RYNHKR [6mer-2-1164] | 33
38 | RDNIRK [6mer-2-1158] | 37
39 | KHKPKR [6mer-2-1153] | 27
40 | KAKAKK [6mer-2-1139] | 39
41 | RTNAKR [6mer-2-1131] | 26
42 | RDMMKK [6mer-2-1120] | 28
43 | KKAMKR [6mer-2-1142] | 30
44 | KTDVKK [6mer-2-1150] | 42
45 | KMNKKR [6mer-2-1140] | 29
46 | KMNARR [6mer-2-1156] | 35
47 | KCTGKR [6mer-2-1141] | 32
48 | KNCMRK [6mer-2-1128] | 36
49 | RCAPKR [6mer-2-1167] | 27
50 | RNTNRK [6mer-2-1155] | 25
51 | RHSFKK [6mer-2-1161] | 27
52 | RITARR [6mer-2-1123] | 36

The next lines start with the values.

Row | Binding affinity [RU] | Binder
53 | 40 | KMPARR [6mer-2-1171]
54 | 21 | KICERK [6mer-2-1169]
55 | 34 | RYSKRR [6mer-2-1175]
56 | 41 | RASEKR [6mer-2-1177]
57 | 35 | KYCDRK [6mer-2-1194]
58 | 21 | RCEPRK [6mer-2-1174]
59 | 27 | KEKFRR [6mer-2-1186]
60 | 25 | KMTERK [6mer-2-1195]
61 | 32 | KACWKR [6mer-2-1181]
62 | 32 | KACIRR [6mer-2-1190]
63 | 38 | KCCNKK [6mer-2-1173]
64 | 30 | RHNDKR [6mer-2-1182]
65 | 36 | KNCERR [6mer-2-1172]
66 | 34 | KACVKK [6mer-2-1179]
67 | 22 | KFWVRR [6mer-2-1184]
68 | 35 | KKADRK [6mer-2-1191]
69 | 25 | KFTIRR [6mer-2-1170]
70 | 40 | KTAPKK [6mer-2-1189]
71 | 42 | RIDAKK [6mer-2-1185]
72 | 40 | KHKNKR [6mer-2-1192]
73 | 43 | REKIRR [6mer-2-1193]
74 | 41 | KMKPKK [6mer-2-1168]
75 | 22 | RAPARR [6mer-2-1188]
76 | 43 | RYTEKK [6mer-2-1176]
77 | 30 | KTTVRK [6mer-2-1178]
78 | 36 | RTADRK [6mer-2-1187]
79 | 34 | RAANRR [6mer-2-1180]
80 | 35 | RENNRK [6mer-2-1183]
